Measurements published in publication PMC2884007.

Experiments:
[1] = target: Mimivirus cyclophilin (mimicyp), full length wild type (Mimivirus) (UniProt Q5UP71); test: crystal structure
[2] = target: Mimivirus cyclophilin (mimicyp), full length wild type (Mimivirus) (UniProt Q5UP71); test: SEC + other: NMR

For “Mimivirus cyclophilin (mimicyp), full length wild type (from UniProt Q5UP71 1-234) (natural protein)”, the stoichiometry N [1] was 3 and the Kd [2] was 50 to 500 µM.
